Test results reported in publication PMC12081870 (Communications Biology, 2025).

Test: 15N NMR relaxation (T1, T2, NOE) of Sla1 SH3#1&2
Type: physicochemical, Saccharomyces cerevisiae
Parameters: Time Constant (T2) / T1 / T2: unit not given here
Settings: for R1/s: 15N relaxation rate; for NOE / T1 / T2: 15N relaxation; for Time Constant (T2): fit A exp(-Bx), 11 peaks
Source text: Fig. 2 A structural analysis of Sla1 SH3 domains 1 and 2. A The predicted interface between the first two SH3 domains of Sla1 as modelled using Alphafold. SH3#1 is shown in light green and SH3#2 is shown in cyan. Residues predicted to form hydrogen bonds using the Pymol search function are shown as sticks and labelled with their respective residue numbers. Dashed black lines indicate interactions. The red line in the structure indicates residues 67–70 in the hinge between the SH3 domains; the magenta loop indicates residues 52–54. B Assignment of the ^1H ^15N HSQC spectrum of Sla1 SH3 domains 1 and 2. C^15N relaxation data for Sla1 SH3#1&2. The linker between domains is approximately residues 67–70 (shown with red line under the trace and in A), and the mobile region 52-54 is part of a loop (shown with magenta line below the trace and in A). The correlation time of 8.5 ns (derived from the trimmed ^15N T1/T2 ratio), matches that calculated for a rigid two-domain structure rather than two independent domains (8.8 and 4.5 ns, respectively).
To investigate further, we purified ^15N, ^13C labelled Sla1 SH3#1&2 and analysed using NMR. A full assignment was obtained (Fig. 2B) which confirmed the Alphafold structure. An important aspect when considering the function of tandem domains is the level of rigidity or flexibility between the domains. […] NMR was used to determine relaxation parameters (^15N R1, R2 and NOE) of ^15N-labelled SH3#1-2 (Fig. 2B). […] The structural unity of the two-domain structure explains why attempts to study SH3#2 alone were unsuccessful.
Experiments were carried out on Bruker DRX-600 and DRX-800 spectrometers fitted with cryoprobes. SH3 domains 1 and 2 were assigned using a standard set of HNCA/HN(CO)CA, HNCO/HN(CA)CO and CBCAHN/CBCA(CO)HN 3D spectra. The assignment has been deposited at BioMagResBank, with code 52650. SH3 domain-3 was assigned by comparison to data provided by Prof Ishwar Radhakrishnan (Northwestern University) for the same domain although with different residues at both ends. Titrations were conducted with three peptides (GenScript Biotech, UK) comprising the three PP motifs (Fig. 3A): p1 […] (residues 318–339); p2 […] (residues 330–361); and p3 […] (residues 375–397). Peptide solutions were prepared as concentrated stock solutions in the same buffer at the same pH and added stepwise to protein solutions. Shift changes were analysed by picking peaks in Felix (Felix NMR Inc, San Diego, CA), which were downloaded to text files and for determining Kd were analysed using Levenberg-Marquardt least squares fitting to the standard quadratic equation[63]. Analysis of the ^15N relaxation data was carried using CCPN Analysis[64].

[1] = Average over the listed residues

B1: Sla1 SH3#1-2: SH3#1-2 (aa 5-131), tandem domains; sequence in b253 (protein)
chain: LGIYRAVYAYEPQTPEELAIQEDDLLYLLQKSDIDDWWTVKKRVIGSDSEEPVGLVPSTYIEEAPVLKKVRAIYDYEQVQNADEELTFHENDVFDVFDDKDADWLLVKSTVSNEFGFIPGNYVEPEN
modifications: 15N-labelled (NMR only); left off: GST, end not stated, cleaved
Res No 120
  R1/s: 1.466 s⁻¹
  NOE: 0.82
  T1: 682.123
  T2: 81.3349
Res No 121
  R1/s: 1.493 s⁻¹
  NOE: 0.78
  T1: 669.609
  T2: 97.0012
Res No 122
  R1/s: 1.379 s⁻¹
  NOE: 0.83
  T1: 725.391
  T2: 86.8543
Res No 124
  R1/s: 1.37 s⁻¹
  NOE: 0.77
  T1: 730.172
  T2: 96.3447
Res No 125
  R1/s: 1.488 s⁻¹
  NOE: 0.80
  T1: 671.872
  T2: 93.7171
Res No 126
  R1/s: 1.238 s⁻¹
  NOE: 0.79
  T1: 807.954
  T2: 78.1493
Res No 127
  R1/s: 1.493 s⁻¹
  NOE: 0.85
  T1: 669.869
  T2: 96.0414
Res No 128
  R1/s: 1.443 s⁻¹
  NOE: 0.81
  T1: 693.218
  T2: 98.2071
Res No 130
  R1/s: 1.206 s⁻¹
  NOE: 0.63
  T1: 829.235
  T2: 96.7653
Res No 131
  R1/s: 1.364 s⁻¹
  NOE: 0.25
  T1: 733.153
  T2: 129.47
[1]
  T1, average: 736.968 ms
  T1/T2, average: 7.904
Average over the listed residues, unit of column T2 Error not given
  T2, average: 95.1164 ms
If S2 ~ 0.9, from T1/T2
  tm: ~8.5 ns
Derived from trimmed 15N T1/T2 ratio
  correlation time: 8.5 ns
Residue 2, 2LeuH/2LeuN
  Time Constant (T2): 74.2339
Residue 3, 3GlyH/3GlyN
  Time Constant (T2): 77.6134
Residue 4, 4SerH/4SerN
  Time Constant (T2): 87.959
Residue 5, 5LeuH/5LeuN
  Time Constant (T2): 78.1323
Residue 6, 6GlyH/6GlyN
  Time Constant (T2): 92.4802
Residue 7, 7IleH/7IleN
  Time Constant (T2): 92.3591
Residue 8, 8TyrH/8TyrN
  Time Constant (T2): 80.6702
Residue 9, 9ArgH/9ArgN
  Time Constant (T2): 95.265
Residue 10, 10AlaH/10AlaN
  Time Constant (T2): 80.3318
Residue 11, 11ValH/11ValN
  Time Constant (T2): 83.3796
Residue 12, 12TyrH/12TyrN
  Time Constant (T2): 98.6102
Residue 13, 13AlaH/13AlaN
  Time Constant (T2): 103.591
Residue 14, 14TyrH/14TyrN
  Time Constant (T2): 86.8853
Residue 15, 15GluH/15GluN
  Time Constant (T2): 80.7454
Residue 17, 17GlnH/17GlnN
  Time Constant (T2): 97.1227
Residue 18, 18ThrH/18ThrN
  Time Constant (T2): 94.4167
Residue 20, 20GluH/20GluN
  Time Constant (T2): 89.6372
Residue 21, 21GluH/21GluN
  Time Constant (T2): 88.1386
Residue 22, 22LeuH/22LeuN
  Time Constant (T2): 101.792
Residue 23, 23AlaH/23AlaN
  Time Constant (T2): 109.32
Residue 24, 24IleH/24IleN
  Time Constant (T2): 84.8173
Residue 25, 25GlnH/25GlnN
  Time Constant (T2): 91.5466
Residue 26, 26GluH/26GluN
  Time Constant (T2): 91.8855
Residue 27, 27AspH/27AspN
  Time Constant (T2): 90.7749
Residue 28, 28AspH/28AspN
  Time Constant (T2): 79.1318
Residue 29, 29LeuH/29LeuN
  Time Constant (T2): 102.528
Residue 30, 30LeuH/30LeuN
  Time Constant (T2): 94.1276
Residue 31, 31TyrH/31TyrN
  Time Constant (T2): 100.15
Residue 32, 32LeuH/32LeuN
  Time Constant (T2): 86.762
Residue 33, 33LeuH/33LeuN
  Time Constant (T2): 75.7339
Residue 34, 34GlnH/34GlnN
  Time Constant (T2): 87.3929
Residue 35, 35LysH/35LysN
  Time Constant (T2): 101.82
Residue 36, 36SerH/36SerN
  Time Constant (T2): 153.776
Residue 37, 37AspH/37AspN
  Time Constant (T2): 90.5854
Residue 38, 38IleH/38IleN
  Time Constant (T2): 99.0603
